# Measurements taken from US20210363257A1 (Pieris, published 2021).
# Columns and labels:
# [1] = molecular target: T1, huPD-L1-His (human PD-L1 with a C-terminal polyhistidine tag) (human, UniProt Q9NZQ7 19-239); test: dual-binding ELISA, huPD-L1-His coated, binder titrated, detection with biotinylated huCD137-His
# T1 construct: Bought; also called biotinylated huPD-L1-His
# Protocol: (§1) Recombinant huPD-L1-His (R&D Systems) in PBS (1 μg/mL) was coated overnight on microtiter plates at 4° C. The plates were washed five times after each incubation step with 100 μL PBS-0.05% T. The plates were blocked with 2% BSA (w/v) in PBS-0.1% T for 1 h at room temperature and subsequently washed again. Different concentrations of tested fusion proteins were added to the wells and incubated for 1 h at room temperature, followed by a wash step. […] After washing, a 1:5000 dilution of ExtrAvidin-HRP (Sigma-Aldrich) in PBS-0.1% T-2% BSA was added to the wells and incubated for 1 h. After an additional wash step, fluorogenic HRP substrate (QuantaBlu, Thermo) was added to each well, and the fluorescence intensity was detected using a fluorescence microplate reader.
# [2] = molecular target: human PD-L1 expressed on cells (human, UniProt Q9NZQ7 19-290); test: cell-based or functional assay
# [3] = molecular target: T1, huPD-L1-His (human PD-L1 with a …); test: dual-binding ELISA, huPD-L1-His coated, binder titrated, detection with biotinylated huCD137-His; PD-L1 capture, CD137 detection (simultaneous binding of both targets)
# Protocol: as §1
# T1 sequence (Q9NZQ7 19-239 limits assumed): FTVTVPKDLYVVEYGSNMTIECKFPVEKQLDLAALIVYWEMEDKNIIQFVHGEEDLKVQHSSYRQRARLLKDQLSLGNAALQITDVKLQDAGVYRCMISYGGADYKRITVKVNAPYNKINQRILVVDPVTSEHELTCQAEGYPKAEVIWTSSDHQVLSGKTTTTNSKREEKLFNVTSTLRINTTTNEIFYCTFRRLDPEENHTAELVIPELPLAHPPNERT
# Sequence of human PD-L1 expressed on cells (Q9NZQ7 19-290): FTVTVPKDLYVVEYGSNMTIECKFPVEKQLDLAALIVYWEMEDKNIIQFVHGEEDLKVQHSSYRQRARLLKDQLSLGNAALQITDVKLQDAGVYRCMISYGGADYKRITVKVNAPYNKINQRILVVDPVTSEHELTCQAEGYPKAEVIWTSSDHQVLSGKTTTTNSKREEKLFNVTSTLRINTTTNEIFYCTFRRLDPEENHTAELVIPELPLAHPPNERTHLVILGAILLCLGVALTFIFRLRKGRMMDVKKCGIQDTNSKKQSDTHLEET
EC50 [1],"EC50 [nM] (PD-1/PD-L1 blockade bioassay, NFAT-RE-mediated luminescence) [2]",EC50 [3],Binder
0.59 nM,–,–,"fusion protein SEQ ID NOs: 86 and 91 (bispecific antibody, human IgG4 S228P, kappa, F234A L235A, Antibody-lipocalin mutein fusion, IgG4 S228P backbone; Bivalent to CD137) heavy: not shown light: EIVLTQSPDTLSVTPKEKVTLTCRASQSIGTNIHWFQQKPGQSPKLLIKYASESISGVPSRFSGSGSGTDFTLTINSVEAEDAATYYCQQSNSWPYTFGQGTKLEIKRTVAAPSVFIFPPSDEQLKSGTASVVCLLNNFYPREAKVQWKVDNALQSGNSQESVTEQDSKDSTYSLSSTLTLSKADYEKHKVYACEVTHQGLSSPVTKSFNRGECGGGGSGGGGSGGGGSQDSTSDLIPAPPLSKVPLQQNFQDNQFHGKWYVVGQAGNIRLREDKDPIKMMATIYELKEDKSYDVTMVKFDDKKCMYDIWTFVPGSQPGEFTLGKIKSFPGHTSSLVRVVSTNYNQHAMVFFKFVFQNREEFYITLYGRTKELTSELKENFIRFSKSLGLPENHIVFPVPIDQCIDG"
–,0.49 nM,0.58 nM,"fusion protein SEQ ID NOs: 90 and 87 (bispecific antibody, human IgG4 S228P, kappa, F234A L235A, Bivalent to CD137) heavy: not shown light: EIVLTQSPDTLSVTPKEKVTLTCRASQSIGTNIHWFQQKPGQSPKLLIKYASESISGVPSRFSGSGSGTDFTLTINSVEAEDAATYYCQQSNSWPYTFGQGTKLEIKRTVAAPSVFIFPPSDEQLKSGTASVVCLLNNFYPREAKVQWKVDNALQSGNSQESVTEQDSKDSTYSLSSTLTLSKADYEKHKVYACEVTHQGLSSPVTKSFNRGEC"
